Assay results taken from patent US20090041784A1 (Amgen, published 2009).
Read-outs that look alike come from different tables or passages of the source.

T1: cynomolgus glucagon receptor (cynomolgus (Macaca fascicularis), UniProt P47871 26-477 (human entry))
T1 chain: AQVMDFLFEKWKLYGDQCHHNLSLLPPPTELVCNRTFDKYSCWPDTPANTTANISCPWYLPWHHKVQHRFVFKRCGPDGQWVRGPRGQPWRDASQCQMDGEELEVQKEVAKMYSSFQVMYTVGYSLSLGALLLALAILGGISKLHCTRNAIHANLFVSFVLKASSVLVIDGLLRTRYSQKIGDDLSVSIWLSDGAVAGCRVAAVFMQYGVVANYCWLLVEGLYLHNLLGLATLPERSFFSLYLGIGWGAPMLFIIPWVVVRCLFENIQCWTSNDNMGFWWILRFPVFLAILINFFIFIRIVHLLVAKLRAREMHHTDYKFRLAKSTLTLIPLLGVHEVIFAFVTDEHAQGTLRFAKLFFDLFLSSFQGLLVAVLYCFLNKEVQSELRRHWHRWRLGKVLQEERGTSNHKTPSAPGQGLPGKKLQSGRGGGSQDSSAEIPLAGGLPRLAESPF


What was measured:
[1] = target: rat glucagon receptor (rat (Rattus norvegicus), UniProt P30082 27-485); assay: cell-based or functional assay
[2] = target: mouse glucagon receptor (mouse (Mus musculus), UniProt Q61606 27-485); assay: cell-based or functional assay
[3] = target: T1, cynomolgus glucagon receptor; assay: cell-based or functional assay
[4] = target: T2, human glucagon receptor (human, UniProt P47871 26-477); assay: cell-based or functional assay
[5] = target: T2, human glucagon receptor; assay: cell-based or functional assay; remark: listed apart in the source
[6] = target: T2, human glucagon receptor; assay: competition with 1 nM Alexa-labeled A-3 for human GCGR on CHO cells, FMAT
[7] = target: T3, chimera-15 (amino acids 80-119 from human GCGR, remainder from human GLP-1 receptor) (human, UniProt P43220 24-83; P43220 125-463); assay: FMAT on cells expressing the chimeric receptor
T3 construct: Expressed on cells; not shown: in-frame C-terminal fluorescent protein, not identified

[8] = target: T4, chimera-10 (amino acids 80-142 from human GCGR, remainder from human GLP-1 receptor) (human, UniProt P43220 24-83; P43220 146-463); assay: FMAT on cells expressing the chimeric receptor
T4 construct: Expressed on cells; not shown: in-frame C-terminal fluorescent protein, not identified

[9] = target: T5, chimera-8 (amino acids 80-477 from human GCGR, remainder from human GLP-1 receptor) (human, UniProt P43220 24-83); assay: FMAT on cells expressing the chimeric receptor
T5 construct: Expressed on cells; not shown: in-frame C-terminal fluorescent protein, not identified

Row | Binder | IC50 of inhibition of glucagon-induced cAMP production (HTRF, CHO K1 cells expressing the receptor) [5] | further results
1 | antibody A-9 (antibody, V domains shown) VH: QVQLVESGGGVVQPGRSLRLSCAASGFTFSSYGMHWVRQAPGKGLEWVAVMWYDGSNKDYVDSVKGRFTISRDNSKNTLYLQMNRLRAEDTAVYYCAREKDHYDILTGYNYYYGLDVWGQGTTVTVSS VL: DIQMTQSPSSLSASVGDRVTITCRASQGIRNDLGWYQQKPGKAPKRLIYAASSLESGVPSRFSGSGSGTEFTLTISSVQPEDFVTYYCLQHNSNPLTFGGGTKVEIK |  | IC50 of inhibition of glucagon-induced cAMP production (HTRF, CHO K1 cells expressing the receptor) [1]: 9.9 nM; IC50 of inhibition of glucagon-induced cAMP production (HTRF, CHO K1 cells expressing the receptor) [2]: 4.1 nM; IC50 of inhibition of glucagon-induced cAMP production (HTRF, CHO K1 cells expressing the receptor) [3]: 26.6 nM; IC50 of inhibition of glucagon-induced cAMP production (HTRF, CHO K1 cells expressing the receptor) [4]: 7.4 nM
2 | antibody A-1 (antibody, V domains shown) VH: QVQLVESGGGVVQPGRSLRLSCAASGITFSSYGMHWVRQAPGKGLEWVASIWYDGSNKYYVDSVKGRFTIFRDNSKKTLYLQMNRLRAEDTAVYYCARLGGGFDYWGQGTLVTVSS VL: DIVLTQTPLSLPVTPGEPASISCRSSQSLLDRDDGDTYLDWYLQKPGQSPQLLIYTLSYRASGVPDRFSGSGSGTDFSLKISRVEAEDVGVYYCMQRIEFPFTFGPGTKVDIK | 15 nM | 
3 | antibody A-2 (antibody, V domains shown) VH: QVQLVESGGGVVQPGRSLRLSCAASGITFSSYGMHWVRQGPGKGLEWVAFIWYDGSEKYYVDSVKGRFTISRDNSKNTLYLQMNSLRAEDTAVYYCARMGGGFDYWGQGTLVTVSS VL: DIVMTQTPLSLPVTPGEPASISCRSSQSLLDSADGDTYLDWYLQKPGQSPQLLIYTLSYRASGVPDRFSGSGSDTDFSLKISRVEAEDVGVYYCMQRIEFPFTFGPGTKVDIK | 10.1 nM | 
4 | antibody A-5 (antibody, V domains shown) VH: QVQLVESGGGVVQPGRSLRLSCAASGFTFSTYGMHWVRQAPGKGLEWVAVISDDGSHKYSADSVKGRFTISRDNSKNTLYLQMNSLRTEDSAVYYCAREETYYDILTGYHHYYGMDVWGQGTTVTVSS VL: DIQMTQSPSSLSAFVGDRVTITCRASQGIRNDLGWYQQKPGKAPKRLLYAASSLQSGVPSRFSGSGSGSEFTLTISSLQPEDFATYYCLQHNSDPLTFGQGTRLEIK | 13.3 nM | 
5 | antibody A-6 (antibody, V domains shown) VH: QVQLVESGGGVVQPGRSLRLSCAASGFTFSSYGMHWVRQAPGKGLEWVAEIWNDGSNKYYADSVKGRFTISRDNPKNTLYLQMNSLRAEDTAVYYCAREPQYYDILTGYDNYYGMDVWGQGTTVTVSS VL: EIVLTQSPGTLSLFPGERATLSCRASQSVSSNYLAWYQQKSGQAPRLLIYGASSRATGIPDRFSGSGSGTDFTLTISRLEPEDFAVYYCQQYGNSPFTFGPGTNVDIK | 32.2 nM | 
6 | antibody A-7 (antibody, V domains shown) VH: QVQLVESGGGVVQPGRSLRLSCAASGFTFSSYDMHWVRQAPGKGLEWVAVISHDGSDKYYADSVKGRFTISRDNSKNTLYLQMSSLRAEDTAVYYCAREKPYYDILTGYFYYYGMDVWGQGTTVTVSS VL: DIQMTQSPSSLSASVGDRVTVTCRASQDIRNDFGWYQQKPGKAPKRLIYAASSLQSGVPSRFSGSGSGTEFTLTISSLQPEDFATYYCLQQNSYPLTFGGGTKVEIK | 8.8 nM | 
7 | antibody A-8 (antibody, V domains shown) VH: QVQLAESGGGVVQPGRSLRLSCTASGITFSSYGMHWVRQAPGKGLEWVAGIWYDGRNKYYVDSVKGRFTISRDNSKKTLYLQMNSLRAEDTAVYYCARLAVAFDYWGQGTLVTVSS VL: DIVMTQTPLSLPVTPGEPASISCRSTQSLLDSDDGDTYLDWYLQKPGQSPQLLIYTLSYRASGVPDRFSGSGSGTDFTLKISRVEAEDVGVYYCMQRIEFPFTFGPGTKVDIK | 10.4 nM | 
8 | antibody A-11 (antibody, V domains shown) VH: QVQLVESGGGVVQPGRSLRLSCAASGSTFRSYDMHWVRQAPGKGLEWVAFISDDGSNKYYGDSVKGRLTISRDNSKNTLYLQMNSLRAEDTAVYYCARDQYDILTGYSSDAFDIWGQGTMVTVSS VL: not shown | 16.7 nM | 
9 | antibody A-12 (antibody, V domains shown) VH: QVQLVESGGGVVQPGRSLRLSCAASGSTFRSYDMHWVRQAPGKGLEWVAFISDDGSNKYYGDSVKGRLTISRDNSKNTLYLQMNSLRAEDTAVYYCARDQYDILTGYSSDAFDIWGQGTMVTVSS VL: not shown | 21.3 nM | 
10 | antibody A-13 (antibody, V domains shown) VH: QVQLVESGGGVVQPGRSLRLSCAASGSTFRSYDMHWVRQAPGKGLEWVAVISYDGSNKYYGDSVKGRLTISRDNSKNTLYLQMNSLRAEDTAVYYCARDQYDILTGYSSDAFDIWGQGTMVTVSS VL: not shown | 72.6 nM | 
11 | antibody A-14 (antibody, V domains shown) VH: QVQLVESGGGVVQPGRSLRLSCAASGFTFSNYGMHWVRQAPGKGLEWVAVIWYDGSNKYYADSVKGRFTISRDNSKNTLYLQMNSLRAEDTAVYYCARAYYDILTDYPQYDYYYGMDVWGQGTTVTVSS VL: NFMLTQPHSVSESPGKTVTISCTRSSGSIVSNFVQWYQQRPGSSPTTVIYEDNQRPSGVPDRFSGSIDSSSNSASLTISGLKTEDEADYYCQSYDTSNQVFGGGTKLTVL | 458 nM | 
12 | antibody A-15 (antibody, V domains shown) VH: QVQLVESGGGVVQPGKSLRLSCAVSGFIFSSYGMHWVRQAPGKGLEWVALISFDGSNKYYADSVKGRFTISRDNSKNTLYLQMNSLRAEDTAVYYCARDGYYDILTGYEDDAFDIWGQGTMVTVSS VL: not shown | 11.3 nM | 
13 | antibody A-22 (antibody, V domains shown) VH: QVQLVESGGGVVQPGRSLRLSCAASGITFSSYGMHWVRQAPGKGLEWVASIWYDGSNKYYVDSVKGRFTIFRDNSKKTLYLQMNRLRAEDTAVYYCARLGGGFDYWGQGTLVTVSS VL: DIVLTQTPLSLPVTPGEPASISCRSSQSLLDRDDGDTYLDWYLQKPGQSPQLLIYTLSYRASGVPDRFSGSGSGTDFSLKISRVEAEDVGVYYCMQRIEFPFTFGPGTKVDIK | 7.2 nM | 
14 | antibody A-17 (antibody, V domains shown, Human antibody from XenoMouse hybridoma (IgG2 or IgG4 strains), purified from conditioned medium; also called L17H17) VH: QVQLVQSGAEVKKPGASVKVSCKASGYTFTSYGISWARQAPGQGLEWMGWIGVYNGHTKYAQKFQGRVTMTTDTSTSTAYMELRSLRSDDTAIFYCARRVAVAGYFDYWGQGTLVTVSS VL: QSVLTQPPSVSGAPGQRVTISCTGSSSNIGAGYAVHWYQQLPGTAPKLLIYDNNNRPSGVPDRFSGSKSGTSASLAITGLQAEDEADYYCQSYDSSLSAIFGGGTKLTVL |  | binding result [6]: binds
15 | antibody A-16 (antibody, V domains shown, Human antibody from XenoMouse hybridoma (IgG2 or IgG4 strains), purified from conditioned medium; also called L16H16) VH: QVQLVQSGAEVKKPGASVKVSCKASGYTFTGYYLHWVRQAPGQGLEWMGWIIPDSGGTKYAQKFQGRVTMTRDTSISTAYLELSRLRSDDTAVYYCAREGFHYDILTGSYFYYYGMDVWGQGTTVTVSS VL: not shown |  | binding result [6]: binds
16 | antibody A-20 (antibody, V domains shown, Human antibody from XenoMouse hybridoma; also called L20H20) VH: EVQLVESGGDLVQPGGSLRLSCAASGFTFSGYTLNWVRQAPGKGLEWVSNINSRSSLIYYTDSVKGRFTISRDNAKNSLYLQMNSLRDEDTAVYFCARDQYNWNYYYGMDVWGQGTTVTVSS VL: DIQMTQSPSSLSASVGDRVTITCRASQGIRNDLGWYQQKPGKAPKRLIYAASSLQSGVPSRFSGSGSGTEFTLTISNLQPEDFATYYCLQHNSYPRSFGQGTKLEIK |  | binding result [6]: binds
17 | antibody A-23 (antibody, V domains shown, Human antibody from XenoMouse hybridoma (IgG2 or IgG4 strains), purified from conditioned medium; also called L23H23) VH: EVRLVESGGGLVQPGGSLRLSCTASGFPFNRYAMNWVRQAPGKGLEWVSYIGSSSSAIYYADSVKGRFTISRDNAKNSLYLQMNSLRDEDTAVYYCARYSSGWSPLFDYWGQGTLVTVSS VL: DIQMTQSPSSVSASVGDRVTITCRASQGISSWLAWYQQKPGKAPKLLIYTASTLQSGVPSRFSGSGSGTDFTLTISSLQPEDFATYYCQQSNSFPLTFGGGTKVEIK |  | binding result [6]: binds
18 | antibody A-10 (antibody, V domains shown, Human antibody from XenoMouse hybridoma (IgG2 or IgG4 strains), purified from conditioned medium; also called L10H10) VH: QVQLQQSGPGLVRPSQTLSLTCAISGDSVSSNYAAWNWIRQSPSRGLEWLGRTYYRSKWYNDYAVSVRSRTTINPDTSKNQFSLQLNSVTPEDTAVYYCTREDGSGWYGAFDIWGQGTMVTVSS VL: DIQMTQSPSSLSASVGDRVTITCQASQDISKYLNWYQQKPGKAPKLLIYDASNLETGVPSRFSGSGSGTDFTFTISSLQPEDIATYYCQQYGNLPITFGQGTRLESK |  | binding result [7]: no binding; binding result [8]: no binding; binding result [9]: no binding
